Experiments:
[1] = test system: human TNF-α; test: ELISA of TNF-α in Caco-2 cell supernatants; format: cell-based; settings: recombinant LAP 1 μg/mL, 8 h
Procedure: A semi-quantitative membrane-based RayBio Human Inflammation Antibody Array kit (Ray Biotech) was used to analyze a panel of 40 inflammatory mediators in Caco-2 cell supernatant infected either with the WT or lap^− strain (MOI, ˜50) at 37° C. for 1 h. After killing the extracellular bacteria by gentamicin (50 μg/mL), the Caco-2 cells were incubated for an additional 7 h at 37° C. Recombinant LAP (1 μg/mL) from ClearColi was incubated for 8 h with Caco-2 cells. After immunoblotting, the reaction intensity was quantified using NIH ImageJ software. The data were normalized and expressed as the mean fold changes as a ratio of lap^−/WT±SEM. For the ELISA, Caco-2 cell supernatants were centrifuged (2,000 rpm at 4° C. for 10 min) following treatment as above, and the quantification of TNF-α and IL-6 in was performed using human TNF-α and IL-6 ELISA kits (Ray Biotech) as per manufacturer's instruction. The quantification of TNF-α and IL-6 protein levels was performed in the ileal tissue lysates from mice using mouse TNF-α and IL-6 ELISA kits (Ray Biotech) as per manufacturer's instruction.

[2] = test system: Caco-2 cell monolayers; test: Apical-to-basolateral flux of paracellular marker FD4 through Caco-2 monolayers; format: cell-based, human; settings: LAP 1 μg/mL, over a 72-h period; TNF-α 10 ng/mL positive control
Procedure: To determine the effect of LAP on Caco-2 permeability at specified time points (0, 24, 48 and 72 h) following incubation with recombinant purified LAP, 100 μl of FD4 (1 mg/mL in DMEM) was added to the apical side and the fluorescence readings (Em: 485 nm; Ex: 520 nm; Spectramax, Molecular Devices) for the basal medium (100 μl) were measured. Human TNF-α (10 ng/mL, R&D Systems) was added to both apical and basal sides and used as a positive control.

[3] = test system: NF-κB(p65); test: Confocal immunofluorescence of p65 localization in Caco-2 cells; format: cell-based, human; settings: 30 min
Procedure: For antibody labeling in cells, Caco-2 cells, were grown to 40-50% confluence in four-chambered slides (Millipore). At the end of the treatment, the cells were fixed with 3.7% formaldehyde in PBS for 20 min and permeabilized and blocked with PBS containing 0.3% Triton X-100 and 3% BSA (Sigma-Aldrich) for 1 h at room temperature and then incubated with respective antibodies overnight at 4° C. Following antibody incubation, the cells were washed with PBS (3 cycles, 5 min) and incubated with FITC or Alexa Fluor 555-conjugated secondary antibody for 2 h at room temperature. The nuclei were stained with DAPI (500 ng/ml; Cell signaling) and slides were mounted in ProLong antifade reagent (Cell Signaling).
All images were acquired using a Nikon A1R MP Multiphoton (Nikon) Confocal fluorescence microscope using a 60× oil immersion objective equipped with the Nikon Elements software (Nikon) at the Purdue Bioscience Imaging Facility. The X-Z and Y-Z cross-sections were produced by orthogonal reconstructions from z-stack scanning at 0.15 μm intervals taken with 60× objective in 5 μm thick paraffin embedded tissue section. Three-dimensional reconstructions were performed using Nikon elements software (Nikon).

[4] = test system: MLCK; test: Immunoblot of MLCK and P-MLC in whole-cell Caco-2 lysates; format: cell-based, human; settings: purified LAP 1 μg/mL, 60 min pi
Procedure: To extract the proteins from Caco-2 cells, cells were seeded in 6-well plates for 14-21 days. Following treatment, the cells were washed, scraped from the bottom of 6-well plates, suspended in PBS, and pelleted by centrifugation. Total protein from Caco-2 cells was extracted using the M-PER Extraction Kit (Thermo Fisher Scientific). Detergent-insoluble (membrane) and detergent-soluble (cytosolic) proteins were isolated using a Mem-Per Eukaryotic Protein Extraction Kit (Thermo Fisher Scientific) while the cytosolic and nuclear proteins were extracted using NE-PER Extraction Reagent (Thermo Fisher Scientific). To extract proteins from ileal epithelial cells, the epithelial cell fraction from ileal tissues were isolated as described above and the detergent-insoluble and the detergent-soluble proteins were isolated using a Mem-Per Eukaryotic Protein Extraction Kit.
To extract total protein from intact bacterial cells, sample solvent buffer and sonication (3 cycles of 20 min each) were used. […] The protein concentrations were determined by BCA assay (Thermo Fisher Scientific), and separated on SDS-PAGE gels (10-12.5% polyacrylamide) and electro-transferred to polyvinylidene difluoride (PVDF) membrane (Millipore). […] To compare the reaction intensities, the average band densities were determined using Quantity One software (Bio-Rad). […]

[5] = test system: Caco-2 cell monolayers; test: Transepithelial electrical resistance (TEER) of Caco-2 monolayers on Transwell inserts; format: cell-based, human

B1: LAP: Listeria adhesion protein, alcohol acetaldehyde dehydrogenase of Listeria monocytogenes, 866 aa, 94 kDa; recombinant, histidine-tagged form SEQ ID NO: 10 (protein)
chain: MAIKENAAQEVLEVQKVIDRLADNGQKALKAFESYNQEQVDNIVHAMALAGLDQHMPLAKLAVEETGRGLYEDKCIKNIFATEYIWNNIKNNKTVGVINEDVQTGVIEIAEPVGVVAGVTPVTNPTSTTLFKAIIAIKTRNPIIFAFHPSAQRCSSAAAKVVYDAAIAAGAPEHCIQWVEKPSLEATKQLMNHDKVALVLATGGAGMVKSAYSTGKPALGVGPGNVPAYIDKTAKIKRSVNDIILSKSFDQGMICASEQAVIVDKEVAKEVKAEMEANKCYFVKGAEFKKLESYVINPEKGTLNPDVVGKSPAWIANQAGFKVPEDTKILVAEIKGVGDKYPLSHEKLSPVLAFIEAANQAEAFDRCEEMLVYGGLGHSAVIHSTDKEVQKAFGIRMKACRIIVNAPSAQGGIGDIYNGFIPSLTLGCGSYGKNSVSQNVSATNLLNVKRIADRRNNMQWFKLPPKIFFEKYSTQYLQKMEGVERVFIVTDPGMGSFKYVDVVIEHLKKRGNDVAYQVFADVEPDPSDVTVYKGAELMKDFKPDTIIALGGGSAMDAAKGMWLFYEHPEASFFGLKQKFLDIRKRTFKYPKLGGKAKFVAIPTTSGTGSEVTPFAVITDKENNIKYPLADYELTPDVAIVDAQYVTTVPAHITADTGMDVLTHAIESYVSVMASDYTRGLSIRAIELVFENLRESVLTGDPDAREKMHNASALAGMAFANAFLGINHSLAHKIGPEFHIPHGRANAILMPHVIRYNALKPKKHALFPRYESFRADEDYARISRIIGFPAATTEEGVKSLVDEIIKLGKDVGIDMSLKGQNVAKKDLDAVVDTLADRAFMDQCTTANPKQPLVSELKEIYLEAYKGV
modifications: Listeria monocytogenes
[1]
  TNF-α production: significantly higher levels
[2]
  FD4 permeability: significant increase in FD4 permeability equivalent to TNF-α
[3]; Caco-2 cells, LAP 1 μg/mL or TNF-α 10 ng/mL
  localization of p65: in the nucleus
[3]; Hsp60 knocked-down Caco-2 cells
  localization of p65: retained p65 within the cytoplasm
[3]; shRNA vector control Caco-2 cells
  localization of p65: nuclear translocation of p65
[4]
  increase of MLCK protein expression levels: 249±9%
[5]; apical treatment, 1-1000 ng/mL, 48-h period
  LAP concentration giving maximum reduction in TEER: 500 to 1000 ng/mL
[5]; purified recombinant LAP added to both the basolateral and apical compartments
  reduction in TEER: 25±2%
[5]; purified recombinant LAP added to the apical compartment
  reduction in TEER: 12±1%
[5]; purified recombinant LAP added to the basolateral compartment
  reduction in TEER: 27±1%

Reference: patent US10632208B2, “Peptide-mediated drug delivery across epithelial barrier” (Purdue Research Foundation, priority 2017, dated 2020)
